The record followed here is patent US20240409637A1 (Regeneron, published 2024).

For test [1], the target named is T1, cynomolgus monkey CD8 on cynomolgus monkey T cells (cynomolgus monkey). Nature of the test: flow cytometry on cynomolgus monkey T cells. Here is the method:
(§1) mAb1 and isotype control antibodies were 4 fold serially diluted in stain buffer (PBS containing 2% FBS) in either an 8-point titration for human CD8 positive T cells or 11 point titration for cynomolgus monkey T cells, starting at a concentration of 200 nM. A sample without primary antibody, stain buffer only, was also included as a control. Antibody titrations were plated out, 50 ul/well, into V-bottom microplates. Primary human and cynomolgus monkey T cells were stained for 15 minutes with LIVE/DEAD™ Fixable Violet Dead Cell Stain (Invitrogen) diluted 1:1000 in PBS. Cells were washed twice, and resuspended in PBS containing 2% FBS. To gate out CD4+ monkey T cells a CD4 antibody from BD Biosciences, that reacts with cynomolgus CD4+ T cells, was incubated with monkey T cells for 30 min on ice and cells were subsequently washed once with stain buffer. Human CD8 positive and monkey T cells in stain buffer were plated such that 50 ul of cell suspension, containing approximately 150,000 T cells, were added into wells of the 96-well V-bottom microplate containing the titrated antibodies. […] Samples were analyzed with the FlowJo10 software such that only viable, CD8 positive, single cells were evaluated for antibody binding.
For orientation: A flow cytometer gives signals particle by particle.

Test [2] deals with human CD8 alpha and beta subunit on JRT3.T3/AP1-Luc/CD28/CD8AB/1G4AB clone 18 reporter T cells (human, UniProt P01732 22-235; P10966 22-210). Nature of the test: cell-based or functional assay.
The target of test [3] is T2, human CD8 on cells (primary human CD8 positive T cells); T cells of mice expressing hCD8; human PBMC-derived … (human, UniProt P01732 22-235; P10966 22-210).
T2 construct: This is native CD8 on cells
Put plainly: flow cytometry (geometric MFI of APC, secondary APC goat anti-mouse IgG) on primary human CD8 positive T cells; four-parameter fit; unit taken from the axis 'Concentration of Antibody Log (M)' [panel Human CD8+ T-cells, table under the plot]. As to the method: as §1

For test [4], the target named is T1, cynomolgus monkey CD8 on cynomolgus …. Put plainly: flow cytometry (geometric MFI of APC, secondary APC goat anti-mouse IgG) on cynomolgus monkey T cells gated on CD8 positive cells; four-parameter fit; unit taken from the axis 'Concentration of Antibody Log (M)' [panel Cynomolgus Monkey T-cells, table under the plot]. Here is the method: as §1
Test [5] addresses T2, human CD8 on cells (primary human CD8 …). Put plainly: flow cytometry on primary human CD8 positive T cells, APC anti-mouse IgG secondary. As to the method: as §1
The target in test [6] is T3, hCD8α with a C-terminal myc-myc-polyhistidine tag (hCD8α.mmh, REGN3940) (human, UniProt P01732 22-182).
T3 construct: not shown: C-terminal myc-myc-polyhistidine tag
Nature of the test: SPR (Sierra Sensors MASS-1), mAb captured by anti-mouse Fc, hCD8α.mmh as analyte, 25°C. As to the method: Equilibrium dissociation constants (KD values) for hCD8α.mmh binding to purified anti-CD8 mAbs were determined using a real-time surface plasmon resonance biosensor using a Sierra Sensors MASS-1 high-capacity amine sensor surface was derivatized by amine coupling with a polyclonal goat anti-mouse Fc antibody (GE, #BR-1008-38) to capture purified anti-CD8 mAbs. SPR binding studies were performed in a buffer composed of 0.01M HEPES pH 7.4, 0.15M NaCl, 3 mM EDTA, 0.05% v/v Surfactant P20 (HBS-ET running buffer). Different concentrations of hCD8α with a C-terminal myc-myc-polyhistidine tag (hCD8α.mmh, REGN3940) prepared in HBS-ET running buffer (ranging from 300 nM to 3.7 nM, 3-fold dilutions) were injected over the anti-CD8 mAb captured surface at a flow rate of 50 μL/minute. Association of hCD8α.mmh to the captured monoclonal antibody was monitored for 4 minutes and the dissociation of hCD8α.mmh in HBS-ET running buffer was monitored for 10 minutes. All of the binding kinetics experiments were performed at 25° C. Kinetic association (kₐ) and dissociation (kd) rate constants were determined by fitting the real-time sensorgrams to a 1:1 binding model using Scrubber 2.0c curve fitting software. Binding dissociation equilibrium constants (KD) and dissociative half-lives (t½) were calculated from the kinetic rate constants as: […]

Test [7] concerns the target T2, human CD8 on cells (primary human CD8 …). Put plainly: flow cytometry on primary human CD8 positive T cells. As to the method:
Recombinant human IL-2 (50 IU/ml) was supplemented into culture media 72 hours post CD3/CD28 Dynabead incubation. When cells had expanded to the necessary cell number for flow cytometry analysis, the Dynabeads were removed by magnetic separation and cells were immediately used to determine the binding of CD8 antibodies or isotype controls.
as §1, with “buffer.” for “buffer. Human CD8 positive and monkey T cells in stain buffer were plated such that 50 ul of cell suspension, containing approximately 150,000 T cells, were added into wells of the 96-well V-bottom microplate containing the titrated antibodies.”

Test [8] deals with T1, cynomolgus monkey CD8 on cynomolgus …. Nature of the test: flow cytometry on cynomolgus monkey T cells (CD4+ gated out), APC anti-mouse IgG secondary. As to the method:
as §1

As a reminder, the EC50 is the concentration that produces a half-maximal response. Broadly, the Kd is the concentration at which binding is half-saturated. Usually koff stands for a measure of how fast the partners let go of each other. By kon is commonly meant the rate constant with which the complex forms.

T2 sequence (P01732 22-235, chain 1 of 2): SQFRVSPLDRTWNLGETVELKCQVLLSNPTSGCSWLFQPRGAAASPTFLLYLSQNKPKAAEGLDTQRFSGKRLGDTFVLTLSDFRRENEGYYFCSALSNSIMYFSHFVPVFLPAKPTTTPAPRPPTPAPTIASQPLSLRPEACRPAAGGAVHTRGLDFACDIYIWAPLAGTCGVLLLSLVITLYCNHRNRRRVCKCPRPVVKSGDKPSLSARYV
T2 sequence (P10966 22-210, chain 2 of 2): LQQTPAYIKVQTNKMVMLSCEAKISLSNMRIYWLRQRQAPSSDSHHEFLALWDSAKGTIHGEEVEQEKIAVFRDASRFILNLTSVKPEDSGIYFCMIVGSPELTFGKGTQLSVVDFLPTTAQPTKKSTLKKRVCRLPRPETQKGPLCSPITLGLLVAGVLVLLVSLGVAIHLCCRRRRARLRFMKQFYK
T3 sequence (P01732 22-182 limits assumed): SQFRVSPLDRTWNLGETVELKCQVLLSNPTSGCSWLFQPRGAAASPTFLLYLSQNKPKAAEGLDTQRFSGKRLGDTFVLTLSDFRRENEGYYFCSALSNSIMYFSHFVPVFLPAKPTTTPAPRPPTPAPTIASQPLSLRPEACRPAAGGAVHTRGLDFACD
Chain of human CD8 alpha and beta subunit on JRT3.T3/AP1-Luc/CD28/CD8AB/1G4AB clone 18 reporter T cells (P01732 22-235, chain 1 of 2): as the sequence (P01732 22-235, chain 1 of 2) above
Chain of human CD8 alpha and beta subunit on JRT3.T3/AP1-Luc/CD28/CD8AB/1G4AB clone 18 reporter T cells (P10966 22-210, chain 2 of 2): as the sequence (P10966 22-210, chain 2 of 2) above

B1: mAb1 (anti-CD8 monoclonal antibody) (antibody, V domains shown)
VH: QVQLVESGGGVDQPGRSLRLSCAASGFIFSNYGIHWVRQAPGKGLEWVAVIWYDGSNKYFEDSVKGRFNISRDNSKNIVYLQMNSLRAEDTAVYFCARSYDMLTGSGDYYGLDVWGQGTTVTVSS
VL: DIQMTQSPSSLSASVGDRVTITCRASQDITNYLAWFQQKPGKAPKSLIYGASSLQSGVPSKFSGSGSGTDFTLTISSLQPEDFATYYCQQYNNYPLTFGGGTKVEIK
notes: It was captured by anti-mouse Fc in SPR and detected with anti-mouse IgG in flow cytometry; It is tied here because mAb1 is the only exemplary antibody; also called H2aM25428N; mAb1-L1
On to B1, for which the “Fold Change (MFI compared to isotype control at 25 nM)” value in test [1] amounted to 1480 fold. In addition, in test [2], the “IC50 [M], reduction of AP1-luciferase activity in CD8 T cell/APC luciferase assay” value stood at 1.2e-09 M. The EC50 in test [3] amounted to 0.369 nM. The same molecule came in with an EC50 in test [4] of 0.329 nM. In test [5], this molecule returned an EC50 of 0.37 nM. Besides, in test [6], the dissociation constant Kd was determined as 32.6 nM, the koff came to 0.00519 s⁻¹, the kon was found to be 159000 M⁻¹ s⁻¹ and the “t1/2” value stood at 2.2 min. In addition, the “Fold Change (MFI compared to isotype control antibody at 25 nM)” value in test [7] is 2780 fold. For the same molecule, the EC50 in test [8] turned out to be 0.33 nM.
